The Kd is the equilibrium constant for the complex coming apart. Read a high Kd as a looser complex.

A value given as a limit tells only on which side of the number the result lay.

From patent US20250171549A1 (Amgen, published 2025) come the findings set out here.

One test deals with T1, murine CCR8 (murine, UniProt P56484 1-353).
T1 construct: Transiently expressed on HEK293T; also called Mouse CCR8; mCCR8
T1 sequence: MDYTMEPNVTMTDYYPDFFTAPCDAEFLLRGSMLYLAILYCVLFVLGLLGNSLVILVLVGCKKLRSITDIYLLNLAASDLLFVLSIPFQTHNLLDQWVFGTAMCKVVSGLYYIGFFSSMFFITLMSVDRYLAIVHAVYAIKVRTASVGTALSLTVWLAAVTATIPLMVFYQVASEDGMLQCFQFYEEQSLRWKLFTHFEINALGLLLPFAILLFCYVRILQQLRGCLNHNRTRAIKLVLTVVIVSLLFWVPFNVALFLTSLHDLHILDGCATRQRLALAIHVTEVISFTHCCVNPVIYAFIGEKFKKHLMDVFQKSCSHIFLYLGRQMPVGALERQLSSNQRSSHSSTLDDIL
Briefly: flow cytometry, HEK293T transfectants, supernatant 5 ug/mL. An excerpt: (§1) Transfected cells were used to assess an antibody's binding specificity using flow cytometry on host Human Embryonic Kidney (HEK) 293T cells. Proteins were expressed on HEK 293T cells by transfection using human CCR8 (SEQ ID NO: 21), human CCR8 with an A27G point mutation (SEQ ID NO: 23), murine CCR8 (SEQ ID NO: 24), rat CCR8 (SEQ ID NO: 25), human CCR4 (SEQ ID NO: 26), or control expression vectors, Gibco™ Opti-MEM® media (Gibco), and 293Fectin™ reagent (Invitrogen) according to the manufacturer's instructions. Human T-cell lymphoma (HuT78) cell lines were also used to determine specificity to endogenously expressed CCR8.
(§2) Transfected HEK293T cells (24 hours after transfection) or HuT78 cells were resuspended in FACS buffer (PBS+2% Fetal Bovine Serum) and added to a 96-well plate. Hybridoma supernatant samples containing control antibodies 433H (BD Biosciences) or L263G8 (BioLegend), Antibody 1 IgG2, or Antibody 2 IgG2 were added at a final concentration of 5.0 μg/mL, cells were resuspended and incubated for 1 hour at 4° C. Plates were washed twice with FACS buffer, centrifuged to pellet the cells, and supernatant was removed and resuspended in FACS buffer to remove unbound antibodies.
(§3) Alexa Fluor 647 goat anti-human or rat IgG (Fcγ fragment specific) secondary antibodies (Jackson ImmunoResearch) made up in FACS buffer at 5.0 μg/mL were added to each well, and cells were resuspended and incubated for 15 minutes at 4° C. Plates were washed twice with FACS buffer, centrifuged to pellet the cells, and supernatant was removed and resuspended in FACS buffer to remove unbound secondary antibodies. Samples were resuspended in FACS buffer and read on either IntelliCyt® iQue or BD Accuri™ Flow Cytometer with an Intellicyt HyperCyt autosampler.
On the technique in general: Flow cytometry measures light scatter and fluorescence of single cells or particles in a stream.

The target of test [1] is T2, human CCR8 with an A27G point mutation (human, UniProt P51685 1-355).
T2 construct: Transiently expressed on HEK293T; also called Human CCR8 [A27G]; humanCCR8[A27G]
The description is as above.
From the text: as §1, §2, §3

The target of the next test is T3, rat CCR8 (rat, UniProt P56484 1-353 (mouse entry)).
T3 construct: Transiently expressed on HEK293T
T3 chain: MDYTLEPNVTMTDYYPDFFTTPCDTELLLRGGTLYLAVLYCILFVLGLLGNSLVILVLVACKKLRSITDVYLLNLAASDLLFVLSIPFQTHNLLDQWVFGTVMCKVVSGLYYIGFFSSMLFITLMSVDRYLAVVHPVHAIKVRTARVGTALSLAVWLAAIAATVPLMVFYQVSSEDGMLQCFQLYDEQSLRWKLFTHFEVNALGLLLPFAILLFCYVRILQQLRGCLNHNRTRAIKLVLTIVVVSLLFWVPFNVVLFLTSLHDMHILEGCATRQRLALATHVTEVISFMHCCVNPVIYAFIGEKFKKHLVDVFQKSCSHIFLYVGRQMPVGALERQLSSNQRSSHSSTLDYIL
The description is as above.
From the text: as §1, §2, §3

The target in a further test is T4, human CCR8 (human, UniProt P51685 1-355).
T4 construct: Transiently expressed on HEK 293T cells, or endogenous on HuT78/HUT78 cells and primary human regulatory T cells; also called hCCR8; human C-C chemokine receptor type 8
Briefly: KinExA, HUT78 cells. As to the method: The cells were counted using a hemocytometer. The HUT78 cells were titrated and incubated with two different constant antibody concentrations, one at 48 pM and the other at 2 nM, in HUT media (RPMI 1640, 10% FBS, 10 mM HEPES, 2 mM L-Glut, 1 mM Sod. Pyr, 0.1 mM NEAA, 50 uM 2-ME) with 0.05% Sodium Azide. For the high [Ab] equilibrium set, HUT78 cells were titrated from 62.5 million per milliliter concentration 1:2 for 10 points in eppendorf tubes and equilibrated with 2 nM antibody in a total volume of 400 μl. For the low [Ab] equilibrium set, HUT78 cells were titrated from 3.89 million per milliliter concentration, 1:2 for 10 points in 50 ml Fulcon tubes and equilibrated with 48 pM antibody in a total volume of 15.5 mL.
For each equilibrium sample the free [Ab] was detected by running the equilibrium samples through the coated beads followed by a quick wash with the running buffer (1×PBS pH7.4+1% BSA+0.05% Sodium Azide). The secondary detection antibody (goat anti-huIgG (H+L) Alexa 647) was run through the flow cell at 680 ng/ml and 500 μL per run. The KinExA voltage output signal was used in KinExA software to calculate the Kd. […]
Cells in media were serially diluted and incubated with 48 pM or 2 nM active binding site concentration of antibody in media in the presence of 0.05% NaN3, and allowed to equilibrate. The free mAb left in the supernatant was measured as described above. […]
Background: Kinetic exclusion samples the free partner from a solution-phase mixture.

T4 sequence (P51685 whole entry): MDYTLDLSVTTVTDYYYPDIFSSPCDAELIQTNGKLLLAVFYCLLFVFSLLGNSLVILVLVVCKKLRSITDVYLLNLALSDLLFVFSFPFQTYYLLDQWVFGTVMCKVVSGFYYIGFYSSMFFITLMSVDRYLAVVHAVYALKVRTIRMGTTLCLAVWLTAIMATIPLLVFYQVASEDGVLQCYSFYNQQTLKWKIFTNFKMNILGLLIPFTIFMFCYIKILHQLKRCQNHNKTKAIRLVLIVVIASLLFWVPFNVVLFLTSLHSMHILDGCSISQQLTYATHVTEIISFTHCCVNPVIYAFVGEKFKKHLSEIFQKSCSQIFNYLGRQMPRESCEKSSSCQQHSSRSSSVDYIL
T2 sequence (P51685 whole entry A27G): as the sequence (P51685 whole entry) above, with A27G counted along it

B1: Antibody 1 IgG2 (antibody)
heavy: EVQLVESGGGLVKPGGSLRLSCAASGFTFSNARMGWVRQAPGKGLEWVGRIKSKTEGGTRDYAAPVKGRFTISRDDSKNTLYLQMNSLKTEDTAVYYCTSYSGVWGQGTMVTVSSASTKGPSVFPLAPCSRSTSESTAALGCLVKDYFPEPVTVSWNSGALTSGVHTFPAVLQSSGLYSLSSVVTVPSSNFGTQTYTCNVDHKPSNTKVDKTVERKCCVECPPCPAPPVAGPSVFLFPPKPKDTLMISRTPEVTCVVVDVSHEDPEVQFNWYVDGVEVHNAKTKPREEQFNSTFRVVSVLTVVHQDWLNGKEYKCKVSNKGLPAPIEKTISKTKGQPREPQVYTLPPSREEMTKNQVSLTCLVKGFYPSDIAVEWESNGQPENNYKTTPPMLDSDGSFFLYSKLTVDKSRWQQGNVFSCSVMHEALHNHYTQKSLSLSPGK
light: not shown
notes: IgG2; tested as hybridoma supernatant
B1: the “binding by FACS (read-out not named)” value in the test with murine CCR8 turned out to be 24700; in test [1] it was 36900; with rat CCR8, 105000. This molecule had a Kd in the test with human CCR8 of 0.216 nM.

B2: Antibody 2 IgG2 (antibody, V domains shown)
VH: QVQLVESGGGVVQPGRSLRLSCAASGFTFSNYGMHWVRQAPGKGLEWVAVISYDGSNKFYADSVKGRFTISRDNSKKTLYLQMSSLRVEDTAVYYCARAGGIGRFDYWGQGTLVTVSS
VL: DFVMTQTPLSLSVTPGQPASISCKYSQSLLHSDGKTYLFWYLQKPGQPPHLLIYEVSNRFSGVPDRFSGSGSGTDFTLKISRVEAEDVGLYYCMQTLKLPLTFGGGTKVEINR
notes: as for B1
Turning to B2, the “binding by FACS (read-out not named)” value in the test with murine CCR8 is 3600; in test [1], 24200; in the test with rat CCR8 it was 11000. Besides, the Kd in the test with human CCR8 was greater than 5 nM.
